Source: patent US20250382344A1, “Soluble GLP1/GIP/NPY2 Receptor Triple Agonists” (Boehringer Ingelheim International GmH, priority 2024, published 2025)
Changes are numbered by the printed parent chain. Blank lines part the entries; values can stand above or below the binder they belong to.

What was measured:
[1] = biological target: T1, human neuropeptide Y2 receptor (human, UniProt P49146 1-381); experiment: cell-based or functional assay
T1 sequence (looked up): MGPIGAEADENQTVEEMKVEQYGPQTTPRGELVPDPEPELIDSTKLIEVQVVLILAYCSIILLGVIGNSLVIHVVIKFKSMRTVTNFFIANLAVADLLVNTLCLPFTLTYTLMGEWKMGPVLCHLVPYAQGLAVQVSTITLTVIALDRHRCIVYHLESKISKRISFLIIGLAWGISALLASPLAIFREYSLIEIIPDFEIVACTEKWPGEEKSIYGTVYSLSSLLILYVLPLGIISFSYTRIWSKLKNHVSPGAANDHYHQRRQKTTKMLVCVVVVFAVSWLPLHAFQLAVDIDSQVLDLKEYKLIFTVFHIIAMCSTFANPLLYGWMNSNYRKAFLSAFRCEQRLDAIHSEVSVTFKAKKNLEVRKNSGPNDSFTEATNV

[2] = biological target: T2, human neuropeptide Y2 receptor (human, UniProt P49146 1-381); experiment: cell-based or functional assay; remark: listed apart in the source
T2 sequence (looked up): T1 sequence (looked up)

B1: Compound 49 (peptide)
peptide: YXEGTFTSDYSIXLEKQAQXAFVRHLINKXTRQRY
modifications: Aib at 2, 20, 30; aMeL at 13; Lys29 epsilon-amino acylated with C20DA-gGlu-gGlu-gGlu-gGlu-gGlu-gGlu; C-terminal amide
EC50, CreLuc reporter, 100% hP [1]: 763 nM

B3: Compound 13 (peptide)
peptide: B1 peptide
modifications: Aib at 2, 13, 20, 30; Lys29 epsilon-amino acylated with C18DA-gGlu-gGlu-gGlu-gGlu-gGlu-AHX; C-terminal amide
EC50, CreLuc reporter, 0.5% hP [1]: 18.7 nM
EC50, CreLuc reporter, 100% hP [1]: 121 nM

B6: Compound 98 (peptide)
peptide: B1 peptide with A21E
modifications: Aib at 2, 13, 20, 30; Lys29 epsilon-amino: C18DA-gGlu-gGlu-gGlu-gGlu-gGlu-OEG-OEG; C-terminal amide
EC50, CreLuc reporter, 0.5% hP [2]: 27.3 nM
EC50, CreLuc reporter, 100% hP [2]: 202 nM

B7: Compound 131 (peptide)
peptide: B1 peptide with E15D, A21E
modifications: Aib at 2, 13, 20, 30; Lys29 epsilon-amino: C18DA-gGlu-gGlu-gGlu-gGlu-gGlu-gGlu-eLys; C-terminal amide
EC50, CreLuc reporter, 0.5% hP [2]: 17.5 nM
EC50, CreLuc reporter, 100% hP [2]: 85.9 nM

B8: Compound 107 (peptide)
peptide: B1 peptide with I27L
modifications: Aib at 2, 13, 20, 30; Lys29 epsilon-amino: C18DA-gGlu-gGlu-gGlu-gGlu-gGlu-gGlu-eLys; C-terminal amide
EC50, CreLuc reporter, 0.5% hP [2]: 13.3 nM
EC50, CreLuc reporter, 100% hP [2]: 20.3 nM

Other lines, results leading:

EC50, CreLuc reporter, 0.5% hP [2]: 17.1 nM
EC50, CreLuc reporter, 100% hP [2]: 32.9 nM
B2: Compound 165 (peptide)
peptide: B1 peptide with X13A
modifications: Aib at 2, 20, 30; Lys29 epsilon-amino: C18DA-gGlu-gGlu-gGlu-gGlu-gGlu-gGlu-eLys; C-terminal amide

EC50, CreLuc reporter, 100% hP [2]: 39.2 nM
B4: Compound 117 (peptide)
peptide: B1 peptide
modifications: Aib at 2, 13, 20, 30; Lys29 epsilon-amino: C18DA-gGlu-gGlu-gGlu-gGlu-gGlu-OEG-OEG; C-terminal amide

EC50, CreLuc reporter, 0.5% hP [1]: 26.3 nM
EC50, CreLuc reporter, 100% hP [1]: 28.2 nM
B5: Compound 10 (peptide)
peptide: B1 peptide with Q19E
modifications: Aib at 2, 13, 20, 30; Lys29 epsilon-amino acylated with C18DA-gGlu-gGlu-gGlu-gGlu-gGlu-gGlu-eLys; C-terminal amide

EC50, CreLuc reporter, 0.5% hP [2]: 51.6 nM
EC50, CreLuc reporter, 100% hP [2]: 232 nM
B9: Compound 123 (peptide)
peptide: B1 peptide with K16A
modifications: Aib at 2, 13, 20, 30; Lys29 epsilon-amino: C18DA-gGlu-gGlu-gGlu-gGlu-gGlu-gGlu-eLys; C-terminal amide
